Experimental data from the supplement of paper PMC9112550, “Optimization of the antimicrobial peptide Bac7 by deep mutational scanning” (BMC Biology, 2022).

What follows are sequences tested on Escherichia coli TOP10 (assay: shrunken log2 fold change of peptide-encoding DNA abundance (4.5 h post-induction vs induction); higher = less antimicrobial activity (less host growth inhibition)). Conditions: time post-induction: 4.5 h; library: site-saturation at positions 5, 18, 19, 20.
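Note: peptides expressed intracellularly from a pBAD plasmid library in pooled LB shake-flask culture, induced with 0.3% L-arabinose, DNA abundance read by NGS, three biological replicates, DESeq2 with apeglm shrinkage.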

Sequence | shrunken log2 fold change
RRIRKRPPRLPRPRPRPLMYPRP | -0.0706
RRIRYRPPRLPRPRPRPIDDPRP | -1.19
RRIRSRPPRLPRPRPRPQYCPRP | -0.0172
RRIRGRPPRLPRPRPRPYNKPRP | -0.593
RRIRGRPPRLPRPRPRPRKPPRP | 0.399
RRIRERPPRLPRPRPRPQGCPRP | -0.0179
RRIRLRPPRLPRPRPRPRMKPRP | -0.00259
RRIRWRPPRLPRPRPRPMKPPRP | -0.0125
RRIRSRPPRLPRPRPRPCGMPRP | -0.0447
RRIRHRPPRLPRPRPRPADMPRP | 0.0208
RRIRRRPPRLPRPRPRPKAAPRP | 0.596
RRIRARPPRLPRPRPRPSMYPRP | 0.0294
RRIRKRPPRLPRPRPRPFTTPRP | -0.243
RRIRWRPPRLPRPRPRPAEKPRP | 0.192
RRIRDRPPRLPRPRPRPSTTPRP | 0.0945
RRIRSRPPRLPRPRPRPSPMPRP | -0.132
RRIRFRPPRLPRPRPRPTFCPRP | -0.152
RRIRTRPPRLPRPRPRPWKAPRP | 0.0456
RRIRERPPRLPRPRPRPHHAPRP | 0.0055
RRIRERPPRLPRPRPRPFPAPRP | -0.0357
RRIRYRPPRLPRPRPRPWIDPRP | -0.274
RRIRSRPPRLPRPRPRPAGQPRP | -0.0166
RRIRHRPPRLPRPRPRPEFGPRP | 0.308
RRIRSRPPRLPRPRPRPFFIPRP | -0.547
RRIRRRPPRLPRPRPRPMNKPRP | 0.0717

Sequence | shrunken log2 fold change
RRIRQRPPRLPRPRPRPGDHPRP | -0.0718
RRIRARPPRLPRPRPRPSDVPRP | 0.162
RRIRDRPPRLPRPRPRPVRLPRP | 0.28
RRIRWRPPRLPRPRPRPKDEPRP | 0.0784
RRIRFRPPRLPRPRPRPFVRPRP | -0.0733
RRIRKRPPRLPRPRPRPRLEPRP | 0.782
RRIRPRPPRLPRPRPRPPHVPRP | 0.782
RRIRHRPPRLPRPRPRPTERPRP | 0.18
RRIRERPPRLPRPRPRPMCRPRP | 0.03
RRIRSRPPRLPRPRPRPYASPRP | 0.0607
RRIRWRPPRLPRPRPRPGWLPRP | 0.375
RRIRGRPPRLPRPRPRPCEIPRP | 0.128
RRIRIRPPRLPRPRPRPACWPRP | 0.222
RRIRFRPPRLPRPRPRPDAIPRP | 0.041
RRIRARPPRLPRPRPRPFNYPRP | -0.0393
RRIRERPPRLPRPRPRPFATPRP | 0.119
RRIRTRPPRLPRPRPRPQENPRP | -0.165
RRIRRRPPRLPRPRPRPRRMPRP | 0.206
RRIRPRPPRLPRPRPRPSDNPRP | -0.449
RRIRGRPPRLPRPRPRPEVPPRP | 0.434
RRIRCRPPRLPRPRPRPTCRPRP | 0.211
RRIRLRPPRLPRPRPRPRTKPRP | 0.567
RRIRLRPPRLPRPRPRPDCNPRP | 0.0608
RRIRHRPPRLPRPRPRPDRMPRP | -0.093
RRIRVRPPRLPRPRPRPLTGPRP | -0.396

Sequence | shrunken log2 fold change
RRIRCRPPRLPRPRPRPEHDPRP | -0.131
RRIRIRPPRLPRPRPRPKCNPRP | -0.701
RRIRDRPPRLPRPRPRPVKRPRP | 0.0129
RRIRRRPPRLPRPRPRPQMCPRP | 0.0865
RRIRWRPPRLPRPRPRPYNAPRP | -0.307
RRIRDRPPRLPRPRPRPVCLPRP | 0.345
RRIRYRPPRLPRPRPRPSIIPRP | -0.236
RRIRMRPPRLPRPRPRPWKNPRP | 0.0328
RRIRFRPPRLPRPRPRPGVIPRP | -0.356
RRIRERPPRLPRPRPRPIQPPRP | 0.0319
RRIRVRPPRLPRPRPRPAITPRP | -0.142
RRIRCRPPRLPRPRPRPHELPRP | -0.336
RRIRSRPPRLPRPRPRPCSNPRP | -0.0564
RRIRPRPPRLPRPRPRPCRPPRP | -0.168
RRIRPRPPRLPRPRPRPMTPPRP | 0.165
RRIRSRPPRLPRPRPRPHGAPRP | 0.104
RRIRLRPPRLPRPRPRPKMPPRP | -0.0152
RRIRERPPRLPRPRPRPQTMPRP | -0.157
RRIRHRPPRLPRPRPRPDCFPRP | 0.3
RRIRDRPPRLPRPRPRPPQQPRP | -0.089
RRIRMRPPRLPRPRPRPWAPPRP | 0.214
RRIRFRPPRLPRPRPRPRRYPRP | -0.0281
RRIRYRPPRLPRPRPRPYQGPRP | 0.00408
RRIRHRPPRLPRPRPRPVSFPRP | 0.00493
RRIRIRPPRLPRPRPRPNMWPRP | -0.59
